Experimental data reported in patent US20190284266A1 (H LUNDBECK A S, published 2019).
One block for each binder: values may come before it.

Target: T1, hyperphosphorylated (pathological) tau from human Alzheimer's disease brain, phosphorylated at serine 396 (human, UniProt P10636 2-758, phosphoserine at 396; hyperphosphorylated at further sites that are not listed)
T1 construct: Brain-derived material (sections, S1, S1p and sarkosyl-insoluble P3 fractions, PBS extracts), a mixture of isoforms and aggregates; also called AD-P3; AD-P3 antigens
T1 sequence (P10636 other isoform, or with tags, fused parts or gaps limits assumed): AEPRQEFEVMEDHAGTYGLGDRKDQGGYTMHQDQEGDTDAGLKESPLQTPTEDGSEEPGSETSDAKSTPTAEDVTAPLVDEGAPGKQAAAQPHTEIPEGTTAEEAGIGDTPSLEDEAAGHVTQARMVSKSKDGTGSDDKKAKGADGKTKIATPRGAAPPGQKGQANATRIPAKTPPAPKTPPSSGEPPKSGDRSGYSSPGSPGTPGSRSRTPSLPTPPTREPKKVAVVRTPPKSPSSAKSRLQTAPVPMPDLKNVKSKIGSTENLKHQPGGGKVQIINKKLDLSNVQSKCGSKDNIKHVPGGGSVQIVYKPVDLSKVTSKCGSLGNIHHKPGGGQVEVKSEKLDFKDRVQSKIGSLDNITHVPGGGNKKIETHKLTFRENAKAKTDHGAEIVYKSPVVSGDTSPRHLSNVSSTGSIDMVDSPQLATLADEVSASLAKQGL
Assay: binding of pathological versus non-pathological tau, brain material (Table 5)

- AD/ctrl (ratio of binding to AD brain tau over control brain tau): 3 fold
B1: HJ8.5 (antibody, V domains shown)
VH: EVKVEESGGGLVQPGGSMKLSCVVSGFTFSNYWVNWVRQSPEKGLEWVAQIRLKSDNYATHYEESVKGRFTISRDDSKSSVYLQMNNLRAEDSGIYYCTNWEDYWGQGTTLTVSS
VL: DIVLTQSPASLAVSLGQRATISCRASQSVSTSRYSYIHWYQQKPGQPPKLLIKYASNLESGVPARFSGSGSGTDFTLNIHPLEEEDAATYYCHHSWEIPLTFGAGTKLELK

- AD/ctrl (ratio of binding to AD brain tau over control brain tau): 3 fold
B2: IPN002 (antibody, V domains shown)
VH: EVHLVESGGALVKPGGSLKLSCAASGFSFSKYGMSWVRQTPDKRLEWVATISSSGSRTYYPDSVKGQFTISRDNAKNTLYLQMSSLKSEDTAMYYCSISWDGAMDYWGQGTSVTVSS
VL: DVLMTQTPLSLPVSLGDQASISCKSSQSIVHSNGNTYLEWYLQKPGQSPKLLVYKVSNRFSGVPDRFSGSGSGTDFTLKISRVEAEDLGTYYCFQGSLVPWAFGGGTKLEIK
